The record followed here is article PMC7797052 (Nucleic Acids Research, 2020).

Substitutions are numbered along the chain they refer to. Numbers in names are those of the source.

Data set [1] has as its target X1BR2-GFP (C-terminal BRCT domain of XRCC1 fused to C-terminal GFP) (human, UniProt P18887 538-633). As to the kind of experiment: GFP-fluorescence-based competition binding assay.
Data set [2] deals with T1, L3BR (residues 825-922) (human, UniProt P49916-3 825-922).
T1 sequence (looked up): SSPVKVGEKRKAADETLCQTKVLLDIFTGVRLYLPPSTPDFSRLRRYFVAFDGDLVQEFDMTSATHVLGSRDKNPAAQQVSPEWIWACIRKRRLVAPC
In words: native gel or EMSA.

Data set [3] concerns the molecule itself. In words: SAXS.
Data set [4] deals with the molecule itself. In words: SEC. (Size exclusion chromatography separates by hydrodynamic size, large species first.)

B1: MBP-L3BR^844 (L3BR^832 lacking its 12 N-terminal residues, MBP fusion) (domain or fragment, human, UniProt P49916-3 844-922, looked up)
chain: TKVLLDIFTGVRLYLPPSTPDFSRLRRYFVAFDGDLVQEFDMTSATHVLGSRDKNPAAQQVSPEWIWACIRKRRLVAPC
In general, EC50 refers to the concentration giving half of the maximal effect. A lower EC50 goes with higher potency in that assay. Turning to B1, the EC50 in data set [1] was found to be 670 nM.

B2: X1BR2 L626E (residues 538-633), designated wild type (WT) in Figure 1E (domain or fragment, human, UniProt P18887 538-633, looked up)
chain: ELPDFFQGKHFFLYGEFPGDERRKLIRYVTAFNGELEDYMSDRVQFVITAQEWDPSFEEALMDNPSLAFVRPRWIYSCNEKQKLLPHQEYGVVPQA
In the case of B2, the binding result in data set [2] is listed as “binds”.

B3: X1BR2 F569A (on the L626E template, residues 538-633) (domain or fragment, human, UniProt P18887 538-633, looked up)
chain: B2 chain with F32A
Regarding B3, the binding result in data set [2] is on record as “binds”.

B4: X1BR2 N570A (on the L626E template, residues 538-633) (domain or fragment, human, UniProt P18887 538-633, looked up)
chain: B2 chain with N33A
On to B4, for which the binding result in data set [2] is on record as “binds”.

B5: X1BR2 Y565A (on the L626E template, residues 538-633) (domain or fragment, human, UniProt P18887 538-633, looked up)
chain: B2 chain with Y28A
As to B5, the binding result in data set [2] is “binds”.

B6: phosphorylated XRCC1ΔN (XRCC1ΔN-p, residues 294-633) (domain or fragment, human, UniProt P18887 294-633, looked up)
chain: AVTGKPRGEGTEPRRPRAGPEELGKILQGVVVVLSGFQNPFRSELRDKALELGAKYRPDWTRDSTHLICAFANTPKYSQVLGLGGRIVRKEWVLDCHRMRRRLPSQRYLMAGPGSSSEEDEASHSGGSGDEAPKLPQKQPQTKTKPTQAAGPSSPQKPPTPEETKAASPVLQEDIDIEGVQSEGQDNGAEDSGDTEDELRRVAEQKEHRLPPGQEENGEDPYAGSTDENTDSEEHQEPPDLPVPELPDFFQGKHFFLYGEFPGDERRKLIRYVTAFNGELEDYMSDRVQFVITAQEWDPSFEEALMDNPSLAFVRPRWIYSCNEKQKLLPHQLYGVVPQA
modifications: phosphorylated by casein kinase II (CK2) in the region between X1BR1 and X1BR2; sites not given
With B6, the binding result in data set [3] is given as “binds”.

B7: MBP-L3BR^832 (C-terminal BRCT domain of DNA ligase IIIα, residues 832-922, N-terminal MBP fusion) (domain or fragment, human, UniProt P49916-3 832-922, looked up)
chain: EKRKAADETLCQTKVLLDIFTGVRLYLPPSTPDFSRLRRYFVAFDGDLVQEFDMTSATHVLGSRDKNPAAQQVSPEWIWACIRKRRLVAPC
Usually stoichiometry N stands for the number of molecules, sites or subunits per partner or assembly. Take B7: in data set [4], the “stoichiometry N” value came out at 2. In data set [1], this molecule showed an EC50 of 1240 nM.

B8: L3BR^832 fused to C-terminal GFP (domain or fragment, human, UniProt P49916-3 832-922, looked up)
chain: B7 chain
On to B8, for which the “stoichiometry N” value in data set [4] was determined as 2.

B9: L3BR^832 (untagged, residues 832-922 of DNA ligase IIIα) (domain or fragment, human, UniProt P49916-3 832-922, looked up)
chain: B7 chain
Regarding B9, the “stoichiometry N” value in data set [3] amounted to 2.
